According to patent US20230250148A1 (published 2023):
Changes are numbered by the printed parent chain. Like-named read-outs stand apart in the source and are kept apart here. Values belong to the binder of their own block, whether it stands above or below them.

What was measured:
[1] = molecular target: T1, human insulin receptor (IR) on human IM-9 cells (human, UniProt P06213 28-1382); experiment: competition with biotinylated RHI on IM-9 cells, flow cytometry, 4 C
T1 construct: whole, on cells; also called human IR
T1 sequence (P06213 28-1382): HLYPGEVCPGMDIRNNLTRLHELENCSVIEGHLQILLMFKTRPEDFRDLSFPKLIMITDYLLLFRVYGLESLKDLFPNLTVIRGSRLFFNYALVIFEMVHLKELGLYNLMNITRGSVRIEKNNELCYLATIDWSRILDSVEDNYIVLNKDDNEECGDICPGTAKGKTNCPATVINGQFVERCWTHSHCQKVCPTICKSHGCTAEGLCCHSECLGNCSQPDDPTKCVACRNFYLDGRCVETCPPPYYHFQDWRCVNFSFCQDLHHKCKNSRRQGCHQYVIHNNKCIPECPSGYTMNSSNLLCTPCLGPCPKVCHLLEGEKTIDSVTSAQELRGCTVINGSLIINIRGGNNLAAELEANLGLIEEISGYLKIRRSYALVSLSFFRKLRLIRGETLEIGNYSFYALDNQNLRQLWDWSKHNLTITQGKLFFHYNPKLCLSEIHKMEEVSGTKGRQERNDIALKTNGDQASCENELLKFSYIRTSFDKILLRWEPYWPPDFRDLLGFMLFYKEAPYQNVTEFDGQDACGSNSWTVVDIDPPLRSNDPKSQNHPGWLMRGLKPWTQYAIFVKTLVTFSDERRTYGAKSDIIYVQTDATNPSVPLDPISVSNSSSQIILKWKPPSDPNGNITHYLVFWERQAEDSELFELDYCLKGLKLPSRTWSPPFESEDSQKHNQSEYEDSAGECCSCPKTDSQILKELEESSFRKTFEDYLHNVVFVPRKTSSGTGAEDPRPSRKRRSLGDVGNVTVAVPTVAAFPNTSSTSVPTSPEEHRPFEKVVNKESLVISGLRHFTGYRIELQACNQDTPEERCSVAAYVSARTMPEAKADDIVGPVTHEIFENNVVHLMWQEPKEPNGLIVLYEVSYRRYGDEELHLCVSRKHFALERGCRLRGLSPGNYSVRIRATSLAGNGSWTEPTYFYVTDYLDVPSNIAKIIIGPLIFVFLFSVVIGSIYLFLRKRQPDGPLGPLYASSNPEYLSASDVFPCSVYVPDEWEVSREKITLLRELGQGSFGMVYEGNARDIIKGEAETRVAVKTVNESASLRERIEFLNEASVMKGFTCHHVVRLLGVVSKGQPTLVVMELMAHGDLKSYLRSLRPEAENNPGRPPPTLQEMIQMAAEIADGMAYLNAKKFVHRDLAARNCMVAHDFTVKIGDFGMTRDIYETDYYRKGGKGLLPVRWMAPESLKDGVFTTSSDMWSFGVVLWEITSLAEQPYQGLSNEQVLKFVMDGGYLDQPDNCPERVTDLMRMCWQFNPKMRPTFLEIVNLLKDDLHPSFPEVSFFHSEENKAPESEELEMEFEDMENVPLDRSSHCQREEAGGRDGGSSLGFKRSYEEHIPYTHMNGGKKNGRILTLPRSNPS
Description: (§1) 40 µL of an IM-9 cell suspension (8×10⁶ cells/mL) was then added to each well by multichannel pipette, mixed again gently and incubated on ice for 30 min to allow competitive binding on the IR on IM-9 cells. Cells were then washed twice with 275µL of ice-cold FACS wash buffer (HBSS/2mM EDTA/0.1% Na-azide + 0.5% horse serum) by centrifuging the V-bottom plate at 3000 rpm for 3 min and aspirating the supernatant. Cells were then resuspended in 40µL of FACS staining medium containing 1:100 diluted Streptavidin-PE (Life Technologies) for 20 min on ice. Cells were then washed once with 275 µL of ice-cold FACS buffer and finally fixed with 3% paraformaldehyde for 10 min at room temp. Cells were then washed once with 275 µL of ice-cold FACS buffer and resuspended in 250µl of FACS buffer for analysis.
The two insulin-Fc fusion proteins were manufactured in HEK293 cells according to Example 1 and purified using a Protein A column according to Example 4. Their structures were confirmed according to Example 6 by non-reducing and reducing CE-SDS, and the sequences were further identified by LC-MS with glycan removal according to Example 8. Their %homodimer content was measured by size-exclusion chromatography according to Example 10, and their insulin receptor binding affinities were measured according to Example 12.

[2] = molecular target: T1, human insulin receptor (IR) on human …; experiment: as above; remark: listed apart in the source
Description: as §1
In vitro insulin receptor binding for the insulin-Fc fusion proteins of SEQ ID NO: 36 and SEQ ID NO: 38 was tested according to the procedure of Example 12.

[3] = molecular target: T2, biotinylated recombinant human Fc(gamma)RI (human, UniProt P12314 16-288, biotinylated, site not stated); experiment: ELISA, fusion protein coated, biotinylated rhFc(gamma)RI at 3000 ng/mL
T2 construct: Bought reagent; construct not described; also called rhFc(gamma)RI; Fc(gamma) receptor I
T2 sequence (P12314 16-288 limits assumed): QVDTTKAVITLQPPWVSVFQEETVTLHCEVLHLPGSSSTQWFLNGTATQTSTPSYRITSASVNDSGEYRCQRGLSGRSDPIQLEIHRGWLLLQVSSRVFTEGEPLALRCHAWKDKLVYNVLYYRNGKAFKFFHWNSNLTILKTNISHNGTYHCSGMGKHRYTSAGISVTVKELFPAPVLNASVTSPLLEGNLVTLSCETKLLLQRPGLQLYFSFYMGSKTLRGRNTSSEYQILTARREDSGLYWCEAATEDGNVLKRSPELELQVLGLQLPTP
Description: (§2) The binding of insulin-Fc fusion proteins to the Fc(gamma)RI at pH 7.4 is conducted using an ELISA assay as follows using human Fc(gamma)RI (i.e., rhFc(gamma)RI). Insulin-Fc fusion proteins are diluted to 10 µg/mL in sodium bicarbonate buffer at pH 9.6 and coated on Maxisorp (Nunc) microtiter plates overnight at 4° C., after which the microplate strips are washed 5 times with PBST (PBS/0.05% Tween-20) buffer and blocked with Superblock blocking reagent (ThermoFisher). Serial dilutions of biotinylated rhFc(gamma)RI (recombinant human Fc(gamma)RI; R&D Systems) are prepared in PBST/10% Superblock buffer from 3000 ng/mL to 4.1 ng/mL and loaded at 100 µL/well onto the microplate strips coated with insulin-Fc fusion protein. The microtiter plate is incubated for 1 hour at room temperature after which time the microplate strips are washed 5 times with PBST and then loaded with 100 µL/well of streptavidin-HRP diluted 1:10000 in PBST/10% Superblock buffer. After incubating for 45 min, the microplate strips are washed again 5 times with PBST. TMB is added to reveal the bound Fc(gamma)RI proteins and is stopped with ELISA stop reagent (Boston Bioproducts). The plate is read in an ELISA plate reader at 450 nm, and the OD450 values (proportional to the binding of rhFc(gamma)RI to insulin-Fc protein) are plotted against log concentrations of rhFc(gamma)RI added to each well to generate binding curves using GraphPad Prism software. For groupings of compounds with somewhat similar curves, the OD450 at one of the higher concentrations, for instance at rhFc(gamma)RI concentrations of 3000 ng/mL, can be used to identify differences between coated insulin-Fc fusion protein compounds. […]
Finally, select compounds were tested for their likelihood to interact with the immune system by measuring their Fc(gamma) receptor binding activity according to the procedure of Example 15.

[4] = molecular target: T2, biotinylated recombinant human …; experiment: ELISA, fusion protein coated, biotinylated rhFc(gamma)RI in solution
Description: as §2

[5] = molecular target: T2, biotinylated recombinant human …; experiment: as above; remark: listed apart in the source

B2: insulin-Fc fusion protein of SEQ ID NO: 36 (Fc fusion)
chain: FVNQHLCGSDLVEALALVCGERGFFYTDPTGGGPRRGIVEQCCHSICSLYQLENYCNGGGGAGGGGDCPKCPAPEMLGGPSVFIFPPKPKDTLLIARTPEVTCVVVDLDPEDPEVQISWFVDGKQMQTAKTQPREEQFNGTYRVVSVLPIGHQDWLKGKQFTCKVNNKALPSPIERTISKARGQAHQPSVYVLPPSREELSKNTVSLTCLIKDFFPPDIDVEWQSNGQQEPESKYRTTPPQLDEDGSYFLYSKLSVDKSRWQRGDTFICAVMHEALHNHYTQESLSHSPG
modifications: native N-glycosylation site cNg-NB139
notes: HEK293 homodimer
IC50 [2]: 28 nM | OD450nm [3]: 0.428 | OD450nm minus assay background [3]: 0.371 | ratio to SEQ ID NO: 36 [3]: 1 | OD450nm [4]: 0.386 | OD450nm minus assay background [4]: 0.323 | ratio to SEQ ID NO: 36 [4]: 1

B3: insulin-Fc fusion protein of SEQ ID NO: 41 (Fc fusion)
chain: B2 chain with N139D
notes: non-glycosylated
fold Fc(gamma) receptor binding activity against SEQ ID NO: 40 and SEQ ID NO: 42 [5]: ~2 fold | OD450nm [4]: 0.204 | OD450nm minus assay background [4]: 0.141 | ratio to SEQ ID NO: 36 [4]: 0.44

B4: insulin-Fc fusion protein of SEQ ID NO: 31 (Fc fusion)
chain: FVNQHLCGSDLVEALALVCGERGFFYTDPTGGGPRRGIVEQCCHSICSLYQLENYCNGGGGAGGGGRCTDTPPCPVPEPLGGPSVLIFPPKPKDILRITRTPEVTCVVLDLGREDPEVQISWFVDGKEVHTAKTQSREQQFNGTYRVVSVLPIEHQDWLTGKEFKCRVNHIDLPSPIERTISKARGRAHKPSVYVLPPSPKELSSSDTVSITCLIKDFYPPDIDVEWQSNGQQEPERKHRMTPPQLDEDGSYFLYSKLSVDKSRWQQGDPFTCAVMHETLQNHYTDLSLSHSPG
notes: HEK293; only 24% homodimer
IC50 [2]: 2730 nM

More lines, now with the values ahead:

IC50 [1]: 1280 nM
B1: insulin-Fc fusion protein of SEQ ID NO: 53 (Fc fusion)
chain: FVNQHLCGSHLVEALALVCGERGFFYTDPTGGGPRRGIVEQCCTSICSLYQLENYCGGGGGQGGGGQGGGGQGGGGGDCPKCPAPEMLGGPSVFIFPPKPKDTLLIARTPEVTCVVVDLDPEDPEVQISWFVDGKQMQTAKTQPREEQFSGTYRVVSVLPIGHQDWLKGKQFTCKVNNKALPSPIERTISKARGQAHQPSVYVLPPSREELSKNTVSLTCLIKDFFPPDIDVEWQSNGQQEPESKYRTTPPQLDEDGSYFLYSKLSVDKSRWQRGDTFICAVMHEALHNHYTQESLSHSPG

IC50 [1]: > 5000 nM
B5: insulin-Fc fusion protein of SEQ ID NO: 48 (Fc fusion)
chain: FVNQHLCGSHLVEALALVCGERGFFYTDPTGGGPRRGIVEQCCTSICSLYQLENYCGGGGAGGGGDCPKCPAPEMLGGPSVFIFPPKPKDTLLIARTPEVTCVVVDLDPEDPEVQISWFVDGKQMQTAKTQPREEQFSGTYRVVSVLPIGHQDWLKGKQFTCKVNNKALPSPIERTISKARGQAHQPSVYVLPPSREELSKNTVSLTCLIKDFFPPDIDVEWQSNGQQEPESKYRTTPPQLDEDGSYFLYSKLSVDKSRWQRGDTFICAVMHEALHNHYTQESLSHSPG
